In assay [1] the target is T1, human plexin A1 protein sema domain (from glutamic acid at position 28 to serine at position 514) tagged at … (human, UniProt Q9UIW2 28-514).
T1 construct: also called human plexin A1 sema domain
T1 sequence: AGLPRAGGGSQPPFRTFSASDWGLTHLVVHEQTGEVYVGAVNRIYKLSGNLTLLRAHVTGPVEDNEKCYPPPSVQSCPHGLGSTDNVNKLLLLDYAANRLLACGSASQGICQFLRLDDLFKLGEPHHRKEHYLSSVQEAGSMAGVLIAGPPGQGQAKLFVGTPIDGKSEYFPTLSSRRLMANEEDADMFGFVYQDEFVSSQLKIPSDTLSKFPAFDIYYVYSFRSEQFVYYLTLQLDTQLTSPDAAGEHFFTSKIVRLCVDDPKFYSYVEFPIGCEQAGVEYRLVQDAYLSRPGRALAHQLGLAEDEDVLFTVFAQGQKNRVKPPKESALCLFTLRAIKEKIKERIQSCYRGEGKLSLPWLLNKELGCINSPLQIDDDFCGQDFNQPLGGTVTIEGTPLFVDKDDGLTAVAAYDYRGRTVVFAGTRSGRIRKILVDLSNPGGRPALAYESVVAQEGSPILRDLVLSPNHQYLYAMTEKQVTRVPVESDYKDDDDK
The assay can be described thus: SPR, Biacore T200; KD against parent antibody hPANLB2-3_342. On the procedure:
(§1) Each antibody obtained in the paragraph (10-1) was evaluated for its binding activity against the antigen by surface plasmon resonance (SPR) analysis.
(§2) In the SPR analysis, the antibody was analyzed using Biacore T200 (GE Healthcare Japan Corp.). The anti-human plexin A1 antibody was immobilized onto the surface of Sensor Chip CM4 using Recombinant Protein A/G (Thermo Fisher Scientific Inc.) and Amine Coupling Kit (GE Healthcare Japan Corp.). The antigen used was a human plexin A1 protein sema domain (from glutamic acid at position 28 to serine at position 514) tagged at the C terminus of the protein with FLAG tag. The antigen was prepared as follows: an expression vector carrying a cDNA corresponding to the human plexin A1 sema domain was transferred to FreeStyle 293 cells. After culture, the obtained culture solution was passed through an anti-FLAG-M2 antibody-immobilized affinity column. A fraction eluted with the FALG peptide was purified by gel filtration. The obtained antigen was serially diluted with 20 mM ACES, 150 mM NaCl, 0.05% polysorbate 20, and 1.2 mM CaCl₂ (pH 7.4) and added to the sensor chip at a flow rate of 30 μL/min. In this assay system, the dissociation constant (KD) between the human plexin A1 protein and the anti-human plexin A1 antibody was calculated using data analysis software (BIA T200 Evaluation software ver. 2).
(Surface plasmon resonance follows binding to a sensor surface in real time, without labels.)

For assay [2], the target named is T1, human plexin A1 protein sema domain …. The assay can be described thus: SPR, Biacore T200; antibody held by Protein A/G on CM4 chip, sema domain as analyte. On the procedure: as §1, §2
In a further assay the target is T2, mouse IgA (mouse, UniProt P01878 114-344).
T2 sequence (looked up): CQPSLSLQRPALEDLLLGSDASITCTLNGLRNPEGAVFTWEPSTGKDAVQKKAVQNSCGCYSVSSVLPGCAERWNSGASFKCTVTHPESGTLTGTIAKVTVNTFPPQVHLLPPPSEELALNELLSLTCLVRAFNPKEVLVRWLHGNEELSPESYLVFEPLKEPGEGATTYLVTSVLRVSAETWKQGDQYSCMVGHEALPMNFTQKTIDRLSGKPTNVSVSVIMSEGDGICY
In words: biolayer interferometry (Octet RED384), antibody on Protein G biosensor, mouse IgA in solution; antigen concentration not given [c]. The procedure:
(§3) Each antibody (mIANH-2_27 and mIANH-3_79) obtained in the paragraph (4-1) or a PF1 antibody was evaluated for its binding activity against mouse IgA or soluble human IL-6R using Octet RED384 (forteBIO). The binding evaluation was conducted using HBS-EP+Buffer (GE Healthcare Japan Corp.) as a buffer.
(§4) After binding of the antibody to Protein G Biosensors (forteBIO), mouse IgA or soluble human IL-6R was allowed to interact with the antibody on the biosensor through contact therebetween for 120 seconds, and subsequently contacted with the buffer for 120 seconds to measure the antibody-antigen interaction. Then, the biosensor was regenerated through contact with 10 mmol/L glycine-HCl (pH 1.5). The measurement was conducted at 30° C.
(In general: BLI is a label-free optical method that tracks binding on a fibre tip over time.)

Assay [3] addresses T3, soluble human plexin A1 (human, UniProt Q9UIW2 27-1244).
T3 construct: also called hPlexin A1; human Plexin A1 extracellular region
The assay can be described thus: biolayer interferometry (Octet RED384), antibody on Protein G biosensor, soluble human plexin A1 in solution; antigen concentration not given [d]. The procedure:
(§5) Each antibody (PANH-2_52, PANH-2_68, and PANH-3_10) obtained in the paragraph (4-1) or an anti-human IL-6R antibody PF1 antibody was evaluated for its binding activity against soluble human plexin A1 and soluble human IL-6R using Octet RED384 (forteBIO). The binding evaluation was conducted using HBS-EP+Buffer (GE Healthcare Japan Corp.) as a buffer.
(§6) After binding of the antibody to Protein G Biosensors (forteBIO), soluble human plexin A1 or soluble human IL-6R was allowed to interact with the antibody on the biosensor through contact therebetween for 120 seconds, and subsequently contacted with the buffer for 120 seconds to measure the antibody-antigen interaction. Then, the biosensor was regenerated through contact with 10 mmol/L glycine-HCl (pH 1.5). The measurement was conducted at 30° C.

The target in assay [4] is T4, soluble human IL-6R (human, UniProt P08887 20-357).
T4 construct: Analyte in the Octet experiments; also called hIL-6R; soluble hIL-6R
T4 sequence: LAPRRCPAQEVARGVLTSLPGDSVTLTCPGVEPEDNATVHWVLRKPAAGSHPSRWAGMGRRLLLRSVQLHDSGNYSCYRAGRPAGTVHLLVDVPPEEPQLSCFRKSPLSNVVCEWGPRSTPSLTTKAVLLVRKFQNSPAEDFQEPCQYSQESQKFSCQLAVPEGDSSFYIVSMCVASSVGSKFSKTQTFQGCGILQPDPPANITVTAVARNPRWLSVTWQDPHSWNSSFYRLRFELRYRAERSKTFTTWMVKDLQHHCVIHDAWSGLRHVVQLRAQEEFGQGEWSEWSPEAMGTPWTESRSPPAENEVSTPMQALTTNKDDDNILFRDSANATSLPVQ
The assay can be described thus: biolayer interferometry (Octet RED384), antibody on Protein G biosensor, soluble human IL-6R in solution, 120 s association and 120 s dissociation [d]. On the procedure: as §5, §6

Assay [5] concerns the target T4, soluble human IL-6R. The assay can be described thus: biolayer interferometry (Octet RED384), antibody on Protein G biosensor, soluble human IL-6R in solution; antigen concentration not given [b]. On the procedure: as §3, §4
Assay [6] deals with T4, soluble human IL-6R. The assay can be described thus: biolayer interferometry (Octet RED384), antibody on Protein G biosensor, soluble human IL-6R in solution; antigen concentration not given [c]. On the procedure: as §5, §6
The target of assay [7] is T3, soluble human plexin A1. In words: biolayer interferometry (Octet RED384), antibody on Protein G biosensor, soluble human plexin A1 in solution, 120 s association and 120 s dissociation [c]. The procedure:
as §5, §6

In assay [8] the target is T4, soluble human IL-6R. In words: biolayer interferometry (Octet RED384), antibody on Protein G biosensor, soluble human IL-6R in solution; antigen concentration not given [a]. The procedure: as §3, §4
Assay [9] deals with T4, soluble human IL-6R. Described as above. The procedure: as §5, §6
This is another data set of the same source.

The target of assay [10] is T3, soluble human plexin A1. The assay can be described thus: biolayer interferometry (Octet RED384), antibody on Protein G biosensor, soluble human plexin A1 in solution, 120 s association and 120 s dissociation [a]. The procedure:
as §5, §6

Assay [11] addresses T4, soluble human IL-6R. In words: biolayer interferometry (Octet RED384), antibody on Protein G biosensor, soluble human IL-6R in solution; antigen concentration not given [b]. The procedure:
as §5, §6
This is another data set of the same source.

Assay [12] deals with T3, soluble human plexin A1. In words: biolayer interferometry (Octet RED384), antibody on Protein G biosensor, soluble human plexin A1 in solution, 120 s association and 120 s dissociation [b]. On the procedure: as §5, §6
The target of assay [13] is human CD3e (hCD3e) extracellular region with FLAG tag (human, UniProt P07766 22-129). In words: biolayer interferometry (Octet RED384), antibody on Protein G biosensor, human CD3e in solution, 120 s association and 120 s dissociation [b]. On the procedure:
(§7) The antibody (6RhCEB3(2)_10) obtained in the paragraph (6-2) or an anti-CD3 antibody hCE115HA/L0000 (heavy chain: SEQ ID NO: 42; light chain: SEQ ID NO: 66) was evaluated for its binding activity against soluble human IL-6R and human CD3e (hCD3e) using Octet RED384 (forteBIO). The binding evaluation was conducted using HBS-EP+Buffer (GE Healthcare Japan Corp.) as a buffer.
(§8) After binding of the antibody to Protein G Biosensors (forteBIO), soluble human IL-6R or human CD3e was allowed to interact with the antibody on the biosensor through contact therebetween for 120 seconds, and subsequently contacted with the buffer for 120 seconds to measure the antibody-antigen interaction. Then, the biosensor was regenerated through contact with 10 mmol/L glycine-HCl (pH 1.5). The measurement was conducted at 30° C.

Assay [14] addresses T4, soluble human IL-6R. The assay can be described thus: biolayer interferometry (Octet RED384), antibody on Protein G biosensor, soluble human IL-6R in solution; antigen concentration not given [b]. The procedure:
as §7, §8
The source holds these as a separate data set.

For orientation: Kd means the equilibrium constant for the complex coming apart. High values mean lower affinity, low ones higher affinity.

T3 sequence (Q9UIW2 other isoform, or with tags, fused parts or gaps): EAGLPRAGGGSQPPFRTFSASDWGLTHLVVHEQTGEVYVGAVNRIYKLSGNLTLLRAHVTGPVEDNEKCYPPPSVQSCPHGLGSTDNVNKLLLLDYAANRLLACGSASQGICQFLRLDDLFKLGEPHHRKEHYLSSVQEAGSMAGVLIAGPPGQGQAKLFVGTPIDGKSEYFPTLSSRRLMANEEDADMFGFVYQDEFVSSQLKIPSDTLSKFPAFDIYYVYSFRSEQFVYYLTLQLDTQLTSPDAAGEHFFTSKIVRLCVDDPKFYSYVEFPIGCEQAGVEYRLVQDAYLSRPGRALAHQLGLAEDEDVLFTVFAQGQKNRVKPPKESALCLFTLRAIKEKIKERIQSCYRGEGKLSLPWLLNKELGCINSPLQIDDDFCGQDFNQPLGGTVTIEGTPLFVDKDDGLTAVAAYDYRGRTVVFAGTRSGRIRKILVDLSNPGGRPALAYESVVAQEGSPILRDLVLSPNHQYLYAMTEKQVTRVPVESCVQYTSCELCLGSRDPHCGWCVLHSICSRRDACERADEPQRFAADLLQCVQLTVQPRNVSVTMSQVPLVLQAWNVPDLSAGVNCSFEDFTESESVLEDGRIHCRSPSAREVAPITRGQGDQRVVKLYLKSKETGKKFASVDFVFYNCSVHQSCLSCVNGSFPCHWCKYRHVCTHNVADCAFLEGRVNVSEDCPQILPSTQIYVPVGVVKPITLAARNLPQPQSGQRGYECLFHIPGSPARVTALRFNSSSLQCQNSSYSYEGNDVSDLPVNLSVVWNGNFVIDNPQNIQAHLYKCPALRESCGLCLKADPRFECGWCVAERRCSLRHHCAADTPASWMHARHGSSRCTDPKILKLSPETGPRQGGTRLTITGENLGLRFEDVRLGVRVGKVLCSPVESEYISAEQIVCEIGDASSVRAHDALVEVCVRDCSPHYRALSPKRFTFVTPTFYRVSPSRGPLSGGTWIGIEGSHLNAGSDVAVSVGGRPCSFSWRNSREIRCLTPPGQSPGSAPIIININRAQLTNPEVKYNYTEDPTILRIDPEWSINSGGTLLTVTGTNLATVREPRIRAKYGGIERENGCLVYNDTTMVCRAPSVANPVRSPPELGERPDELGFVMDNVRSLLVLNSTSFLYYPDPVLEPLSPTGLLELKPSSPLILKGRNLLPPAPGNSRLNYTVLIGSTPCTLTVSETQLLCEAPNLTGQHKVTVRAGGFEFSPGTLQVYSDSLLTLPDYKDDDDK
Chain of human CD3e (hCD3e) extracellular region with FLAG tag (P07766 other isoform, or with tags, fused parts or gaps): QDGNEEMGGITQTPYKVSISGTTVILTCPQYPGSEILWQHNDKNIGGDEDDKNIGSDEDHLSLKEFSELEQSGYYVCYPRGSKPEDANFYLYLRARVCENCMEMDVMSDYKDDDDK

B1: PLR2H342#009 (antibody, human IgG1, lambda, V domains shown)
VH: EVQLVQSGAEVKKPGASVKVSCKASGYTFTSYGISWVRQAPGQGLEWMGWISAYNGNTNYAQKLQGRVTMTTDTSTSTAYMELRSLRSDDTAVYYCARHAGYYYGMDVWGKGTMVTVSS
VL: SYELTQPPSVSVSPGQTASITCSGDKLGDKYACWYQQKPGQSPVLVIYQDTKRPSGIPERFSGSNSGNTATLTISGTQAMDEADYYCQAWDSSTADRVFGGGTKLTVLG
notes: IgG from the 342H-NL library
On to B1, for which the “Relative KD improvement” value in [1] amounted to 19 fold. In addition, the Kd in [2] is 1.82 nM.

B2: PF1 (antibody, human IgG1, kappa, V domains shown)
VH: QVQLQESGPGLVKPSETLSLTCAVSGYSISDDHAWSWVRQPPGEGLEWIGYISYSGITNYNPSLKGRVTISRDTSKNQFSLKLSSVTAADTAAYYCARVLARITAMDYWGEGTLVTVSS
VL: DIQMTQSPSSLSASVGDSVTITCQASQDISSYLNWYQQKPGKAPELLIYYGSELHSGVPSRFSGSGSGTDFTFTISSLEAEDAATYYCGQGNRLPYTFGQGTKVEIER
notes: also called PF1 antibody; anti-IL-6R antibody PF1 antibody
Turning to B2, the binding result was “no binding” with mouse IgA, “no binding” with soluble human plexin A1 [3] and “binds” with soluble human IL-6R [4].

B3: mIANH-3_79 (antibody, human IgG1, kappa, V domains shown)
VH: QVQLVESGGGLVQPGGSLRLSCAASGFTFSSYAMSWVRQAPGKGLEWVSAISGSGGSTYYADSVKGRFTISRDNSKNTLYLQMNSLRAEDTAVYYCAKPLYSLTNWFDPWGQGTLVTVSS
VL: B2 VL
notes: IgG with the PF1 L chain
For B3, the binding result with soluble human IL-6R [5] is reported as “no binding”.

B4: PANH-3_10 (antibody, human IgG1, kappa, V domains shown)
VH: QVQLQESGPGLVKPSETLSLTCTVSGGSISSSSYYWGWIRQPPGKGLEWIGSIYYSGSTYYNPSLKSRVTISVDTSKNQFSLKLSSVTAADTAVYYCARDPVQLEHSRYYYYYGMDVWGQGTTVTVSS
VL: B2 VL
notes: IgG with the PF1 L chain
As to B4, the binding result with soluble human IL-6R [6] was “no binding”; in the assay with soluble human plexin A1 [7], “binds”.

B5: mIANH-2_27 (antibody, human IgG1, kappa, V domains shown)
VH: EVQLVQSGAEVKKPGASVKVSCKASGYTFTGYYIHWVRQAPGQGLEWMGRINPNSGGTNYAQKFQGRVTMTRDTSISTAYMQLSRLRSDDTAVYYCARDNSGWGGFDAFDIWGQGTMVTVSS
VL: B2 VL
notes: IgG with the PF1 L chain
Regarding B5, the binding result with soluble human IL-6R [8] is given as “no binding”.

B6: PANH-2_52 (antibody, human IgG1, kappa, V domains shown)
VH: EVQLVQSGGGVVQPGRSLRLSCAASGFTFSSYAMHWVRQAPGKGLEWVAVISYDGSNKYYADSVKGRFTISRDNSKNTLYLQMNSLRAEDTAVYYCARPPMEWLFWDAFDIWGQGTMVTVSS
VL: B2 VL
notes: IgG with the PF1 L chain
For the molecule B6, the binding result with soluble human IL-6R [9] is listed as “no binding”; with soluble human plexin A1 [10], “binds”.

B7: PANH-2_68 (antibody, human IgG1, kappa, V domains shown)
VH: QVQLVQSGAEVKKPGASVKVSCKASGYTFTSYGISWVRQAPGQGLEWMGWISAYNGNTNYAQKLQGRVTMTTDTSTSTAYMELRSLRSDDTAVYYCARAHTKDIWGQGTMVTVSS
VL: B2 VL
notes: IgG with the PF1 L chain
With B7, the values for the binding result with soluble human IL-6R [11] and in the assay with soluble human plexin A1 [12] were “no binding” and “binds”, respectively.

B8: hCE115HA/L0000 (antibody, human IgG1, kappa, V domains shown)
VH: QVQLVESGGGVVQPGRSLRLSCAASGFTFSNAWMHWVRQAPGKGLEWVAQIKAKSNNYATYYAESVKGRFTISRDDSKNSLYLQMNSLKTEDTAVYYCRYVHYGAYYGVDAWGQGTTVTVSS
VL: DIVMTQSPLSLPVTPGEPASISCRSSQSLVHSNRNTYLHWYQQKPGQAPRLLIYKVSNRFSGVPDRFSGSGSGTDFTLKISRVEAEDVGVYYCGQGTQVPYTFGQGTKLEIKR
notes: also called anti-CD3 antibody hCE115HA/L0000; humanized anti-human CD3 antibody CE115
Regarding B8, the figures for the binding result (in assay [13]; with soluble human IL-6R [14]) were “binds” and “no binding”, respectively.

For the origin of these results see patent publication US20160264960A1 (Chugai, published 2016).
